The results in this text go back to the supplement of paper PMC5998384.

Data set [1] deals with HeLa Kyoto. The data set can be described thus: solubility change mitosis vs G1/S (difference of NP-40 vs SDS log2 ratios) (log2 ratio difference); higher = more soluble in mitosis.
Data set [2] has as its system HeLa Kyoto. The data set can be described thus: thermal stability score vs G1/S (z-score of summed log2 fold changes over temperatures); higher = more thermally stable than in G1/S.
For data set [3], the system named is HeLa Kyoto. The data set can be described thus: melting temperature (median over replicates), in situ; higher = more thermally stable.
Data set [4] has as its system HeLa Kyoto. The data set can be described thus: solubility in G1/S (NP-40 vs SDS abundance) (log2 ratio); higher = more soluble. Conditions: cell cycle stage: G1/S.
Where [5] appears, read: cell cycle stage: early G1 (4.5 h after nocodazole release).
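Throughout, for melting temperature (median over replicates), in situ: HeLa Kyoto cells synchronized by double thymidine or nocodazole block, proteins quantified by TMT10plex mass spectrometry, three independent biological replicates.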
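Throughout, for solubility change mitosis vs G1/S (difference of NP-40 vs SDS log2 ratios): synchronized HeLa Kyoto cells (double thymidine block for G1/S, nocodazole release for mitosis), protein amounts in NP-40 versus SDS lysates quantified by mass spectrometry, three biological replicates.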
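Throughout, for solubility in G1/S (NP-40 vs SDS abundance): HeLa Kyoto cells arrested at G1/S by double thymidine block, proteins quantified by TMT10plex mass spectrometry in mild NP-40 versus SDS extracts, three biological replicates.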
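Throughout, for thermal stability score vs G1/S (z-score of summed log2 fold changes over temperatures): synchronized HeLa Kyoto cells, proteins quantified by TMT10plex mass spectrometry, three biological replicates, mitosis taken 0.5 h after nocodazole release, G1/S directly after double thymidine block.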

As for “MMDIYVCLKRPSWMVDNKRMRTASNFQWLLSTFILLYLMNQVNSQKKGAPHDLKCVTNNLQVWNCSWKAPSGTGRGTDYEVCIENRSRSCYQLEKTSIKIPALSHGDYEITINSLHDFGSSTSKFTLNEQNVSLIPDTPEILNLSADFSTSTLYLKWNDRGSVFPHRSNVIWEIKVLRKESMELVKLVTHNTTLNGKDTLHHWSWASDMPLECAIHFVEIRCYIDNLHFSGLEEWSDWSPVKNISWIPDSQTKVFPQDKVILVGSDITFCCVSQEKVLSALIGHTNCPLIHLDGENVAIKIRNISVSASSGTNVVFTTEDNIFGTVIFAGYPPDTPQQLNCETHDLKEIICSWNPGRVTALVGPRATSYTLVESFSGKYVRLKRAEAPTNESYQLLFQMLPNQEIYNFTLNAHNPLGRSQSTILVNITEKVYPHTPTSFKVKDINSTAVKLSWHLPGNFAKINFLCEIEIKKSNSVQEQRNVTIKGVENSSYLVALDKLNPYTLYTFRIRCSTETFWKWSKWSNKKQHLTTEASPSKGPDTWREWSSDGKNLIIYWKPLPINEANGKILSYNVSCSSDEETQSLSEIPDPQHKAEIRLDKNDYIISVVAKNSVGSSPPSKIASMEIPNDDLKIEQVVGMGKGILLTWHYDPNMTCDYVIKWCNSSRSEPCLMDWRKVPSNSTETVIESDEFRPGIRYNFFLYGCRNQGYQLLRSMIGYIEELAPIVAPNFTVEDTSADSILVKWEDIPVEELRGFLRGYLFYFGKGERDTSKMRVLESGRSDIKVKNITDISQKTLRIADLQGKTSYHLVLRAYTDGGVGPEKSMYVVTKENSVGLIIAILIPVAVAVIVGVVTSILCYRKREWIKETFYPDIPNPENCKALQFQKSVCEGSSALKTLEMNPCTPNNVEVLETRSAFPKIEDTEIISPVAERPEDRSDAEPENHVVVSYCPPIIEEEIPNPAADEAGGTAQVIYIDVQSMYQPQAKPEEEQENDPVGGAGYKPQMHLPINSTVEDIAAEEDLDKTAGYRPQANVNTWNLVSPDSPRSIDSNSEIVSFGSPCSINSRQFLIPPKDEDSPKSNGGGWSFTNFFQNKPND [LIFR]”, in the data set on HeLa Kyoto [1], the “solubility change mitosis (log2)” value was -0.094. For the same sequence, the thermal stability score is -3.21 in the data set on HeLa Kyoto [2] (setting [5]) and -1.95 in the data set with HeLa Kyoto [2] (cell cycle stage: mitosis). In addition, the results for the melting temperature with HeLa Kyoto [3] (cell cycle stage: G1/S) and with HeLa Kyoto [3] (cell cycle stage: mitosis) were 54.8 °C and 55.1 °C, respectively. For the same sequence, the “solubility in G1/S (log2)” value with HeLa Kyoto [4] was determined as 0.206.
Take “MMEEEELEFVEELEAVLQLTPEVQLAIEQVFPSQDPLDRADFNAVEYINTLFPTEQSLANIDEVVNKIRLKIRRLDDNIRTVVRGQTNVGQDGRQALEEAQKAIQQLFGKIKDIKDKAEKSEQMVKEITRDIKQLDHAKRHLTTSITTLNHLHMLAGGVDSLEAMTRRRQYGEVANLLQGVMNVLEHFHKYMGIPQIRQLSERVKAAQTELGQQILADFEEAFPSQGTKRPGGPSNVLRDACLVANILDPRIKQEIIKKFIKQHLSEYLVLFQENQDVAWLDKIDRRYAWIKRQLVDYEEKYGRMFPREWCMAERIAVEFCHVTRAELAKIMRTRAKEIEVKLLLFAIQRTTNFEGFLAKRFSGCTLTDGTLKKLESPPPSTNPFLEDEPTPEMEELATEKGDLDQPKKPKAPDNPFHGIVSKCFEPHLYVYIESQDKNLGELIDRFVADFKAQGPPKPNTDEGGAVLPSCADLFVYYKKCMVQCSQLSTGEPMIALTTIFQKYLREYAWKILSGNLPKTTTSSGGLTISSLLKEKEGSEVAKFTLEELCLICNILSTAEYCLATTQQLEEKLKEKVDVSLIERINLTGEMDTFSTVISSSIQLLVQDLDAACDPALTAMSKMQWQNVEHVGDQSPYVTSVILHIKQNVPIIRDNLASTRKYFTQFCVKFANSFIPKFITHLFKCKPISMVGAEQLLLDTHSLKMVLLDLPSISSQVVRKAPASYTKIVVKGMTRAEMILKVVMAPHEPLVVFVDNYIKLLTDCNTETFQKILDMKGLKRSEQSSMLELLRQRLPAPPSGAESSGSLSLTAPTPEQESSRIRKLEKLIKKRL [VPS53]”: the “solubility change mitosis (log2)” value with HeLa Kyoto [1] is -0.136. Also, the thermal stability score in the data set with HeLa Kyoto [2] (setting [5]) is 0.237; in the data set with HeLa Kyoto [2] (cell cycle stage: mitosis) it was 1.04. Further, the melting temperature in the data set on HeLa Kyoto [3] (cell cycle stage: G1/S) was determined as 50 °C; in the data set with HeLa Kyoto [3] (cell cycle stage: mitosis) it was 49.7 °C. Moreover, the “solubility in G1/S (log2)” value in the data set on HeLa Kyoto [4] is 0.196.
With “MMFYRLLSIVGRQRASPGWQNWSSARNSTSAAEARSMALPTQAQVVICGGGITGTSVAYHLSKMGWKDIVLLEQGRLAAGSTRFCAGILSTARHLTIEQKMADYSNKLYYQLEQETGIQTGYTRTGSIFLAQTQDRLISLKRINAGLNVIGIPSEIISPKKVAELHHLLNVHDLVGAMHVPEDAVVSSADVALALASAASQNGVQIYDRTSVLHVMVKKGQVTGVETDKGQIECQYFVNCAGQWAYELGLSNEEPVSIPLHACEHFYLLTRPLETPLQSSTPTIVDADGRIYIRNWQGGILSGGFEKNPKPIFTEGKNQLEIQNLQEDWDHFEPLLSSLLRRMPELETLEIMKLVNCPETFTPDMRCIMGESPAVQGYFVLAGMNSAGLSFGGGAGKYLAEWMVHGYPSENVWELDLKRFGALQSSRTFLRHRVMEVMPLMYDLKVPRWDFQTGRQLRTSPLYDRLDAQGARWMEKHGFERPKYFVPPDKDLLALEQSKTFYKPDWFDIVESEVKCCKEAVCVIDMSSFTKFEITSTGDQALEVLQYLFSNDLDVPVGHIVHTGMLNEGGGYENDCSIARLNKRSFFMISPTDQQVHCWAWLKKHMPKDSNLLLEDVTWKYTALNLIGPRAVDVLSELSYAPMTPDHFPSLFCKEMSVGYANGIRVMSMTHTGEPGFMLYIPIEYALHVYNEVMSVGQKYGIRNAGYYALRSLRIEKFFAFWGQDINNLTTPLECGRESRVKLEKGMDFIGRDALLQQKQNGVYKRLTMFILDDHDSDLDLWPWWGEPIYRNGQYVGKTTSSAYSYSLERHVCLGFVHNFSEDTGEEQVVTADFINRGEYEIDIAGYRFQAKAKLYPVASLFTQKRRKDDMELSDLHGK [PDPR]”, the “solubility change mitosis (log2)” value in the data set with HeLa Kyoto [1] is -0.203. In addition, the thermal stability score in the data set on HeLa Kyoto [2] (setting [5]) was -1.29; in the data set on HeLa Kyoto [2] (cell cycle stage: mitosis), -1.55. The melting temperature in the data set with HeLa Kyoto [3] (cell cycle stage: G1/S) came to 53.6 °C; with HeLa Kyoto [3] (cell cycle stage: mitosis), 53.7 °C. The “solubility in G1/S (log2)” value in the data set with HeLa Kyoto [4] is -0.175.
Take “MMGRSPGFAMQHIVGVPHVLVRRGLLGRDLFMTRTLCSPGPSQPGEKRPEEVALGLHHRLPALGRALGHSIQQRATSTAKTWWDRYEEFVGLNEVREAQGKVTEAEKVFMVARGLVREAREDLEVHQAKLKEVRDRLDRVSREDSQYLELATLEHRMLQEEKRLRTAYLRAEDSEREKFSLFSAAVRESHEKERTRAERTKNWSLIGSVLGALIGVAGSTYVNRVRLQELKALLLEAQKGPVSLQEAIREQASSYSRQQRDLHNLMVDLRGLVHAAGPGQDSGSQAGSPPTRDRDVDVLSAALKEQLSHSRQVHSCLEGLREQLDGLEKTCSQMAGVVQLVKSAAHPGLVEPADGAMPSFLLEQGSMILALSDTEQRLEAQVNRNTIYSTLVTCVTFVATLPVLYMLFKAS [CCDC51]”: in the data set on HeLa Kyoto [1], the “solubility change mitosis (log2)” value is -0.0792. Besides, the results for the thermal stability score in the data set with HeLa Kyoto [2] (setting [5]) and in the data set on HeLa Kyoto [2] (cell cycle stage: mitosis) were 0.333 and 0.178, respectively. For the same sequence, the melting temperature in the data set with HeLa Kyoto [3] (cell cycle stage: G1/S) stood at 53.5 °C; in the data set with HeLa Kyoto [3] (cell cycle stage: mitosis) it was 52.7 °C. For the same sequence, in the data set on HeLa Kyoto [4], the “solubility in G1/S (log2)” value turned out to be 0.273.
In the case of “MMHFKSGLELTELQNMTVPEDDNISNDSNDFTEVENGQINSKFISDRESRRSLTNSHLEKKKCDEYIPGTTSLGMSVFNLSNAIMGSGILGLAFALANTGILLFLVLLTSVTLLSIYSINLLLICSKETGCMVYEKLGEQVFGTTGKFVIFGATSLQNTGAMLSYLFIVKNELPSAIKFLMGKEETFSAWYVDGRVLVVIVTFGIILPLCLLKNLGYLGYTSGFSLSCMVFFLIVVIYKKFQIPCIVPELNSTISANSTNADTCTPKYVTFNSKTVYALPTIAFAFVCHPSVLPIYSELKDRSQKKMQMVSNISFFAMFVMYFLTAIFGYLTFYDNVQSDLLHKYQSKDDILILTVRLAVIVAVILTVPVLFFTVRSSLFELAKKTKFNLCRHTVVTCILLVVINLLVIFIPSMKDIFGVVGVTSANMLIFILPSSLYLKITDQDGDKGTQRIWAALFLGLGVLFSLVSIPLVIYDWACSSSSDEGH [SLC38A1]”, the “solubility change mitosis (log2)” value in the data set on HeLa Kyoto [1] is -0.24. Besides, the thermal stability score in the data set with HeLa Kyoto [2] (setting [5]) was -1.68; with HeLa Kyoto [2] (cell cycle stage: mitosis) it was -3.89. The melting temperature in the data set with HeLa Kyoto [3] (cell cycle stage: G1/S) turned out to be 57.8 °C; with HeLa Kyoto [3] (cell cycle stage: mitosis), 59.4 °C. In the data set on HeLa Kyoto [4], the “solubility in G1/S (log2)” value is -0.379.
